Data set [1] concerns the molecule itself. Put plainly: crystal structure; p19 homodimer in complex with GL2 siRNA duplex; hanging drop vapour diffusion at 4 °C, 3-12% PEG 1500, 100 mM sodium acetate pH 4.6, 10-40 mM MgCl2; space group P1.
In data set [2] the target is T1, CIRV p19-WT (Carnation Italian ringspot virus, UniProt Q66104 1-172).
T1 sequence: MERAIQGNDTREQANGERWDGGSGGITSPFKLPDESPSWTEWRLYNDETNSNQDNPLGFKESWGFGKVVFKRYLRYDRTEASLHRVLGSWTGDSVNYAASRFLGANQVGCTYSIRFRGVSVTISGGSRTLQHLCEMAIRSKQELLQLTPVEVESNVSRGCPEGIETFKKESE
The experiment in a line: X-ray crystallography; 2.2 A; Protein in 20 mM Tris pH 7.4, 150 mM NaCl, 1 mM TCEP before crystallization; crystallization conditions not in the material. The conditions noted are these: protein: recombinant; tags: N-terminal His6 removed with TEV protease; chain copies: 2; 19 bp, 3' overhang 2 nt on both strands.

Numbering of substitutions follows the chain as printed. In names and notes the source's numbering stands.

B1: wild-type p19 protein from the Carnation Italian ringspot virus (natural protein)
chain: T1 sequence
notes: p19 viral suppressor of RNA silencing, Carnation Italian ringspot virus (CIRV), full-length construct, codon-optimized for E. coli, in pHis-parallel 2; Crystallised in complex with GL2 siRNA duplex; also called p19-WT; CIRV p19; source: E. coli BL21 DE3, purified (Nickel resin, TEV cleavage, size-exclusion chromatography); not shown: His6, N-terminal, cleaved
B1: the binding result in data set [1] was “binds”.

B2: p19-T111S mutant of the Carnation Italian ringspot virus p19 protein (natural protein, UniProt Q66104 1-172, looked up)
chain: T1 sequence with T111S
notes: Crystallised in complex with GL2 siRNA duplex; also called S111; source: E. coli BL21 DE3, purified (Nickel resin, TEV cleavage, size-exclusion chromatography); not shown: His6, N-terminal, cleaved
Turning to B2, the binding result in data set [1] is on record as “binds”.

B3: p19-T111H mutant of the Carnation Italian ringspot virus p19 protein (natural protein, UniProt Q66104 1-172, looked up)
chain: T1 sequence with T111H
notes: Crystallised in complex with GL2 siRNA duplex; also called H111; source: E. coli BL21 DE3, purified (Nickel resin, TEV cleavage, size-exclusion chromatography); not shown: His6, N-terminal, cleaved
For the molecule B3, the binding result in data set [1] is on record as “binds”.

B4: GL2 siRNA duplex (dsRNA)
RNA 1: CGUACGCGGAAUACUUCGAUU
RNA 2: UCGAAGUAUUCCGCGUACGUU
modifications: 5' phosphorylated strands; text says deoxythymidine 2-nt overhangs, but printed as UU
Consider B4, for which the binding result in data set [2] is given as “binds”.

The values are drawn from article PMC6551489, “Structural insights into interactions between viral suppressor of RNA silencing protein p19 mutants and small RNAs” (FEBS Open Bio, 2019).
